Results published in patent US20220298218A1 (ANTAG THERAPEUTICS, published 2022).
*1 amine or outer side, *2 acyl side, *3 side chain or, on linkers, in order; H or OH if unused. Where no end group is shown, it is not given here. Side-chain parts run from the residue outwards. [ ]: non-standard residue; d: D form. The star is where a group is joined. C18 diacid = O=C(O)CCCCCCCCCCCCCCCCC(=O)*; C16 diacid = O=C(O)CCCCCCCCCCCCCCC(=O)*; γGlu = O=C(O)[C@H](CCC(=O)[*:2])N[*:1]; Nle = CCCC[C@H](N)C(=O)O; PEG = not defined here; AEEA = NCCOCCOCC(=O)O; Aib = CC(C)(N)C(=O)O

Target: T1, human GIP receptor (human, UniProt P48546 22-466)
T1 sequence (looked up): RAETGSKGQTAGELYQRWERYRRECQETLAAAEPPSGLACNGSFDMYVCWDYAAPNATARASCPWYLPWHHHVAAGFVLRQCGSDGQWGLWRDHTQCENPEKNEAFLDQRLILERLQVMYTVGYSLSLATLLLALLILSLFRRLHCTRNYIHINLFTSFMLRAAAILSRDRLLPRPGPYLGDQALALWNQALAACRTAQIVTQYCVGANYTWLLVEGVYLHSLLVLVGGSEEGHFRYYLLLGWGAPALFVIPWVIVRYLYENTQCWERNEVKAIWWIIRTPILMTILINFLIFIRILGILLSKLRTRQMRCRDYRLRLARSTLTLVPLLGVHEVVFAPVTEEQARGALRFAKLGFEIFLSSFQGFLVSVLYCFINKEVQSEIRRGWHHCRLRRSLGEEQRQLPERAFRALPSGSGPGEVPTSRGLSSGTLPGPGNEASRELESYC
Experiment: cell-based or functional assay

B1: AT613 (peptide)
peptide: EGTFISEYSIAMEKIK(C16 diacid)QQEFVQWLLAQKPSSGAPPPS-OH
modifications: N-terminus assumed
SMILES: CC[C@H](C)[C@H](NC(=O)[C@H](CO)NC(=O)[C@H](Cc1ccc(O)cc1)NC(=O)[C@H](CCC(=O)O)NC(=O)[C@H](CO)NC(=O)[C@@H](NC(=O)[C@H](Cc1ccccc1)NC(=O)[C@@H](NC(=O)CNC(=O)[C@@H](N)CCC(=O)O)[C@@H](C)O)[C@@H](C)CC)C(=O)N[C@@H](C)C(=O)N[C@@H](CCSC)C(=O)N[C@@H](CCC(=O)O)C(=O)N[C@@H](CCCCN)C(=O)N[C@H](C(=O)N[C@@H](CCCCNC(=O)CCCCCCCCCCCCCCC(=O)O)C(=O)N[C@@H](CCC(N)=O)C(=O)N[C@@H](CCC(N)=O)C(=O)N[C@@H](CCC(=O)O)C(=O)N[C@@H](Cc1ccccc1)C(=O)N[C@H](C(=O)N[C@@H](CCC(N)=O)C(=O)N[C@@H](Cc1c[nH]c2ccccc12)C(=O)N[C@@H](CC(C)C)C(=O)N[C@@H](CC(C)C)C(=O)N[C@@H](C)C(=O)N[C@@H](CCC(N)=O)C(=O)N[C@@H](CCCCN)C(=O)N1CCC[C@H]1C(=O)N[C@@H](CO)C(=O)N[C@@H](CO)C(=O)NCC(=O)N[C@@H](C)C(=O)N1CCC[C@H]1C(=O)N1CCC[C@H]1C(=O)N1CCC[C@H]1C(=O)N[C@@H](CO)C(=O)O)C(C)C)[C@@H](C)CC
Which results are given for B1?
cAMP agonism % Emax: 0%; cAMP antagonism: 1.47 nM; cAMP antagonism % inhib: 100%; cAMP antagonism pIC50: 8.8

TFISDYK([PEG-PEG-γGlu-C18 diacid])IAMDKIHQQDFVNWLLAQKPSSGAPPPS-NH2 (reading uncertain; also: 2xPEG: PEG unit not given here) [AT597] was tested. Which “cAMP agonism % Emax” value did it give?
Its value is 0%.

And the “cAMP antagonism” value?
The value was 79.4 nM.

What about the “cAMP antagonism % inhib” value of the same binder?
Its value is 81%.

What about the “cAMP antagonism pIC50” value of the same binder?
The value was 7.1.

B2: AT615 (peptide)
peptide: EGTFISEYS[Aib]A[Nle]EKIK(C16 diacid)QQDFVEWLLAQKPSSGAPPPS-OH
modifications: N-terminus assumed
SMILES: CCCC[C@H](NC(=O)[C@H](C)NC(=O)C(C)(C)NC(=O)[C@H](CO)NC(=O)[C@H](Cc1ccc(O)cc1)NC(=O)[C@H](CCC(=O)O)NC(=O)[C@H](CO)NC(=O)[C@@H](NC(=O)[C@H](Cc1ccccc1)NC(=O)[C@@H](NC(=O)CNC(=O)[C@@H](N)CCC(=O)O)[C@@H](C)O)[C@@H](C)CC)C(=O)N[C@@H](CCC(=O)O)C(=O)N[C@@H](CCCCN)C(=O)N[C@H](C(=O)N[C@@H](CCCCNC(=O)CCCCCCCCCCCCCCC(=O)O)C(=O)N[C@@H](CCC(N)=O)C(=O)N[C@@H](CCC(N)=O)C(=O)N[C@@H](CC(=O)O)C(=O)N[C@@H](Cc1ccccc1)C(=O)N[C@H](C(=O)N[C@@H](CCC(=O)O)C(=O)N[C@@H](Cc1c[nH]c2ccccc12)C(=O)N[C@@H](CC(C)C)C(=O)N[C@@H](CC(C)C)C(=O)N[C@@H](C)C(=O)N[C@@H](CCC(N)=O)C(=O)N[C@@H](CCCCN)C(=O)N1CCC[C@H]1C(=O)N[C@@H](CO)C(=O)N[C@@H](CO)C(=O)NCC(=O)N[C@@H](C)C(=O)N1CCC[C@H]1C(=O)N1CCC[C@H]1C(=O)N1CCC[C@H]1C(=O)N[C@@H](CO)C(=O)O)C(C)C)[C@@H](C)CC
What does the source list for B2?
cAMP agonism % Emax: 0%; cAMP antagonism: 7.94 nM; cAMP antagonism % inhib: 97%; cAMP antagonism pIC50: 8.1

For TFISDYK([PEG-PEG-γGlu-C18 diacid])IAMDKIHQQDFVNWLLAGGPSSGAPPPS (not fully specified (C-terminus); reading uncertain) [AT602], which “cAMP agonism % Emax” value is on record?
The value was 0%.

And the “cAMP antagonism” value?
Its value is 35.5 nM.

What about the “cAMP antagonism % inhib” value of the same binder?
Its value is 100%.

What about the “cAMP antagonism pIC50” value of the same binder?
The value was 7.5.

B3: AT593 (peptide)
peptide: EGTFISDYSIAMDKIK([AEEA-AEEA-γGlu-C18 diacid])QQDFVNWLLAQPSSGAPPPS-NH2
modifications: N-terminus assumed
SMILES: CC[C@H](C)[C@H](NC(=O)[C@H](CO)NC(=O)[C@H](Cc1ccc(O)cc1)NC(=O)[C@H](CC(=O)O)NC(=O)[C@H](CO)NC(=O)[C@@H](NC(=O)[C@H](Cc1ccccc1)NC(=O)[C@@H](NC(=O)CNC(=O)[C@@H](N)CCC(=O)O)[C@@H](C)O)[C@@H](C)CC)C(=O)N[C@@H](C)C(=O)N[C@@H](CCSC)C(=O)N[C@@H](CC(=O)O)C(=O)N[C@@H](CCCCN)C(=O)N[C@H](C(=O)N[C@@H](CCCCNC(=O)COCCOCCNC(=O)COCCOCCNC(=O)CC[C@H](NC(=O)CCCCCCCCCCCCCCCCC(=O)O)C(=O)O)C(=O)N[C@@H](CCC(N)=O)C(=O)N[C@@H](CCC(N)=O)C(=O)N[C@@H](CC(=O)O)C(=O)N[C@@H](Cc1ccccc1)C(=O)N[C@H](C(=O)N[C@@H](CC(N)=O)C(=O)N[C@@H](Cc1c[nH]c2ccccc12)C(=O)N[C@@H](CC(C)C)C(=O)N[C@@H](CC(C)C)C(=O)N[C@@H](C)C(=O)N[C@@H](CCC(N)=O)C(=O)N1CCC[C@H]1C(=O)N[C@@H](CO)C(=O)N[C@@H](CO)C(=O)NCC(=O)N[C@@H](C)C(=O)N1CCC[C@H]1C(=O)N1CCC[C@H]1C(=O)N1CCC[C@H]1C(=O)N[C@@H](CO)C(N)=O)C(C)C)[C@@H](C)CC
B3 was tested. Which “cAMP agonism % Emax” value did it give?
Its value is 0%.

And the “cAMP antagonism” value?
The value was 63.1 nM.

And the “cAMP antagonism % inhib” value?
Its value is 86%.

And the “cAMP antagonism pIC50” value?
Its value is 7.2.

B4: AT594 (peptide)
peptide: EGTFISDYSIAMDKIHQK([AEEA-AEEA-γGlu-C18 diacid])DFVNWLLAQKPSSGAPPPS-NH2
modifications: N-terminus assumed
SMILES: CC[C@H](C)[C@H](NC(=O)[C@H](CO)NC(=O)[C@H](Cc1ccc(O)cc1)NC(=O)[C@H](CC(=O)O)NC(=O)[C@H](CO)NC(=O)[C@@H](NC(=O)[C@H](Cc1ccccc1)NC(=O)[C@@H](NC(=O)CNC(=O)[C@@H](N)CCC(=O)O)[C@@H](C)O)[C@@H](C)CC)C(=O)N[C@@H](C)C(=O)N[C@@H](CCSC)C(=O)N[C@@H](CC(=O)O)C(=O)N[C@@H](CCCCN)C(=O)N[C@H](C(=O)N[C@@H](Cc1c[nH]cn1)C(=O)N[C@@H](CCC(N)=O)C(=O)N[C@@H](CCCCNC(=O)COCCOCCNC(=O)COCCOCCNC(=O)CC[C@H](NC(=O)CCCCCCCCCCCCCCCCC(=O)O)C(=O)O)C(=O)N[C@@H](CC(=O)O)C(=O)N[C@@H](Cc1ccccc1)C(=O)N[C@H](C(=O)N[C@@H](CC(N)=O)C(=O)N[C@@H](Cc1c[nH]c2ccccc12)C(=O)N[C@@H](CC(C)C)C(=O)N[C@@H](CC(C)C)C(=O)N[C@@H](C)C(=O)N[C@@H](CCC(N)=O)C(=O)N[C@@H](CCCCN)C(=O)N1CCC[C@H]1C(=O)N[C@@H](CO)C(=O)N[C@@H](CO)C(=O)NCC(=O)N[C@@H](C)C(=O)N1CCC[C@H]1C(=O)N1CCC[C@H]1C(=O)N1CCC[C@H]1C(=O)N[C@@H](CO)C(N)=O)C(C)C)[C@@H](C)CC
Which results are given for B4?
cAMP agonism % Emax: 0%; cAMP antagonism: 79.4 nM; cAMP antagonism % inhib: 80%; cAMP antagonism pIC50: 7.1

B5: AT614 (peptide)
peptide: EGTFISEYSIAMEKIK(C16 diacid)QQDFVEWLLAQKPSSGAPPPS-OH
modifications: N-terminus assumed
SMILES: CC[C@H](C)[C@H](NC(=O)[C@H](CO)NC(=O)[C@H](Cc1ccc(O)cc1)NC(=O)[C@H](CCC(=O)O)NC(=O)[C@H](CO)NC(=O)[C@@H](NC(=O)[C@H](Cc1ccccc1)NC(=O)[C@@H](NC(=O)CNC(=O)[C@@H](N)CCC(=O)O)[C@@H](C)O)[C@@H](C)CC)C(=O)N[C@@H](C)C(=O)N[C@@H](CCSC)C(=O)N[C@@H](CCC(=O)O)C(=O)N[C@@H](CCCCN)C(=O)N[C@H](C(=O)N[C@@H](CCCCNC(=O)CCCCCCCCCCCCCCC(=O)O)C(=O)N[C@@H](CCC(N)=O)C(=O)N[C@@H](CCC(N)=O)C(=O)N[C@@H](CC(=O)O)C(=O)N[C@@H](Cc1ccccc1)C(=O)N[C@H](C(=O)N[C@@H](CCC(=O)O)C(=O)N[C@@H](Cc1c[nH]c2ccccc12)C(=O)N[C@@H](CC(C)C)C(=O)N[C@@H](CC(C)C)C(=O)N[C@@H](C)C(=O)N[C@@H](CCC(N)=O)C(=O)N[C@@H](CCCCN)C(=O)N1CCC[C@H]1C(=O)N[C@@H](CO)C(=O)N[C@@H](CO)C(=O)NCC(=O)N[C@@H](C)C(=O)N1CCC[C@H]1C(=O)N1CCC[C@H]1C(=O)N1CCC[C@H]1C(=O)N[C@@H](CO)C(=O)O)C(C)C)[C@@H](C)CC
What does the source list for B5?
cAMP agonism % Emax: 0%; cAMP antagonism: 1.08 nM; cAMP antagonism % inhib: 100%; cAMP antagonism pIC50: 9

B6: AT616 (peptide)
peptide: EGTFISEYSI[Aib]MEKIK(C16 diacid)QQDFVEWLLAQKPSSGAPPPS-OH
modifications: N-terminus assumed
SMILES: CC[C@H](C)[C@H](NC(=O)[C@H](CCCCN)NC(=O)[C@H](CCC(=O)O)NC(=O)[C@H](CCSC)NC(=O)C(C)(C)NC(=O)[C@@H](NC(=O)[C@H](CO)NC(=O)[C@H](Cc1ccc(O)cc1)NC(=O)[C@H](CCC(=O)O)NC(=O)[C@H](CO)NC(=O)[C@@H](NC(=O)[C@H](Cc1ccccc1)NC(=O)[C@@H](NC(=O)CNC(=O)[C@@H](N)CCC(=O)O)[C@@H](C)O)[C@@H](C)CC)[C@@H](C)CC)C(=O)N[C@@H](CCCCNC(=O)CCCCCCCCCCCCCCC(=O)O)C(=O)N[C@@H](CCC(N)=O)C(=O)N[C@@H](CCC(N)=O)C(=O)N[C@@H](CC(=O)O)C(=O)N[C@@H](Cc1ccccc1)C(=O)N[C@H](C(=O)N[C@@H](CCC(=O)O)C(=O)N[C@@H](Cc1c[nH]c2ccccc12)C(=O)N[C@@H](CC(C)C)C(=O)N[C@@H](CC(C)C)C(=O)N[C@@H](C)C(=O)N[C@@H](CCC(N)=O)C(=O)N[C@@H](CCCCN)C(=O)N1CCC[C@H]1C(=O)N[C@@H](CO)C(=O)N[C@@H](CO)C(=O)NCC(=O)N[C@@H](C)C(=O)N1CCC[C@H]1C(=O)N1CCC[C@H]1C(=O)N1CCC[C@H]1C(=O)N[C@@H](CO)C(=O)O)C(C)C
For B6, which “cAMP agonism % Emax” value is on record?
Its value is 0%.

What about the “cAMP antagonism” value of the same binder?
The value was 0.473 nM.

What about the “cAMP antagonism % inhib” value of the same binder?
The value was 100%.

What about the “cAMP antagonism pIC50” value of the same binder?
The value was 9.3.
